Measured values published in the RNAGym collection of RNA variant scans (doi:10.1073/pnas.2313332121).
This sample holds only a part of the variants without activity.

B1: TPR 5TU (parent)
chain: GGAUCUUCUCGAUCUAACAAAAAAGACAAAUCUGCCACAAAGCUUGAGAGCAUCUUCGGAUGCAGAGGCGGCAGCCUUCGGUGGCGCGAUAGCGCCAACGUUCUCAACUAUGACACGCAAAACGCGUGCUCCGUUGAAUGGAGUUUAUCAUG

Variants of: B1
Assay: polymerase ribozyme fitness, log enrichment relative to wild type (log ratio); higher = more active; in vitro selection for triplet polymerase activity
Procedure, shortened: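 In triplicate, a single round of in vitro selection was run on each mutant library, PCR-built and transcribed, covering one subunit of a heterodimeric triplet polymerase ribozyme. Frozen incubation at −7 °C followed annealing with a biotinylated primer, partner subunit and triplets, and extended constructs were then gel-excised, streptavidin-captured and taken through RT-PCR. Fitness is the logarithm of genotype enrichment over wild-type enrichment, from inverse-variance-weighted replicate averages of Illumina-sequenced inputs and outputs. […] only genotypes with ≥10 input reads and ≥1 read per output were kept.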

| Variant | polymerase ribozyme fitness (log ratio) |
| --- | --- |
| G58U G68A U148G | ≤ -4.2 |
| C57G C87U | -2.97 |
| C57G G59A A73U G88C | ≤ -4.2 |
| G59A C85G G92U C95A C116A U127G | ≤ -4.2 |
| C57A G74A | -2.66 |
| U56A U101G U144C | -0.262 |
| G59A U134A | -2.02 |
| G59C C95U G136U | -2.05 |
| U56G A119C U146G | -1.1 |
| G59C G71U G88U A98U C116G G124U | ≤ -4.2 |
| G59A C85G G100A U134G U144G A150C | ≤ -4.2 |
| C57U U78A G84A C95U U135G | ≤ -4.2 |
| C57A C131G | -3.13 |
| G58A G84A U104G | -0.568 |
| C57U G141A | 0.719 |
| C57U G84A C99A | -1.59 |
| G59A U144C | 0.0653 |
| U56A G84C A150G | -3.39 |
| G58A G83A U109C A115U | ≤ -4.2 |
| C57A G70A U134C | -3.65 |
| G58C G65C A66C U77G U102A C132U | ≤ -4.2 |

| Variant | polymerase ribozyme fitness (log ratio) |
| --- | --- |
| G58A G81A C123U U146G A147G | -0.0286 |
| C57U A73G G143U U145G | ≤ -4.2 |
| C57A C96U U146G | -0.855 |
| G58U A97G G112C C149A | ≤ -4.2 |
| U56G G58A A73G C108U A150G | ≤ -4.2 |
| G58C G94U C131U | -0.209 |
| C57U U111G | -4.17 |
| U56G U90A | -3.7 |
| U56G C118U C123U | -0.604 |
| G58C G67U A91U A107G C108U C116G C125U C129U | ≤ -4.2 |
| U56C A120C C149U | -1.17 |
| C57U A73C | -1.36 |
| C57U A73U | -0.507 |
| C57U G62A C63U C87A G141A C149U | ≤ -4.2 |
| G59A G100A | ≤ -4.2 |
| G59C G86C | -3.39 |
| C57U C85U | 0.073 |
| C57U C85A | -1.63 |
| G58A A73G C85G A98C | -1.02 |
| C57U G58A U104G C105U | -3.63 |
| G58C A60G C63U G84A | 0.439 |

| Variant | polymerase ribozyme fitness (log ratio) |
| --- | --- |
| C57U A89U U101A C125U G141A U146A | ≤ -4.2 |
| U56A U109C G141U | -2.56 |
| C57G C93U | -1.72 |
| G59A A106C A113C C118G | ≤ -4.2 |
| C57U G81C C95A A122C | -0.59 |
| G58C G71C G92U C96U U145A | ≤ -4.2 |
| C57U C87A | -4.12 |
| U56C C87G | ≤ -4.2 |
| C57G A73G U82A C96G U101C C116A | -3.9 |
| U56G U144A | -0.473 |
| C57A C129U C131U U134C | 1.02 |
| G59A U82A C95G G136A | -1.25 |
| U56G A89C C96A C116G A119C | -3.23 |
| U56A G128A | -3.15 |
| C57G U82A C95G U134C | -1.35 |
| G58C A107C U130G A137G A147G | ≤ -4.2 |
| C57G U82C C95U C125A C131U U135C U146C | -3.38 |
| U56C U101G A120U C131A | -2.44 |
| G59A C85G | -2.1 |
| G59A C85A | -1.04 |
| G58U G84U A113G U139G | -2.95 |

| Variant | polymerase ribozyme fitness (log ratio) |
| --- | --- |
| C57A C114U A120G C129U | ≤ -4.2 |
| G58U A66C U77G A91U C96G A97U | ≤ -4.2 |
| C57A C93A A106U A122U | -2.85 |
| C57U G84U | -2.27 |
| C57U G84A C93U | -2.9 |
| G58C U77G C87G G152A | ≤ -4.2 |
| G59A C96G | -1.1 |
| C57G A142C | -0.312 |
| U56G G94A U139G | -1.18 |
| G59A C87U A137U | ≤ -4.2 |
| C57U G94U U127C C132U | -3.37 |
| C57A G59C | 0.0811 |
| U56G C57U G62U A66G C75U G83U | ≤ -4.2 |
| G59C G83A C125A | -1.12 |
| C57U C87U C93A A107C | ≤ -4.2 |
| G59A C76G U78G C85U G88A G92C | ≤ -4.2 |
| G58C C118U U135C U145A | -1.79 |
| U56A G94C A115C A121U U134A A147U | -3.74 |
| G59C G84U G124C | -2.97 |
| C57U G92U | -0.682 |
| C57U A60G G133C G152U | -3.31 |
